Experimental data: patent US20230212549A1 (3B PHARMACEUTICALS, published 2023)
Several values for one entry are separate records, joined by “and”; a condition that tells them apart may be missing. Identical values can stand only once. Numbered stars: 1 amine (or outer) side, 2 acyl side, 3 side chain; on linkers, the order of the positions; unused ones are H or OH. Bridge positions count the residues as written; N and C are the ends. Square brackets hold non-standard residues; d marks the D form. Primed or numbered codes have the meaning given here. Side chains are listed from the residue outwards. * marks the point of attachment. Ttds″ = 1,13-diamino-4,7,10-trioxatridecan-succinamic acid spacer, O=C(CCC(=O)[*:2])NCCCOCCOCCOCCCN[*:1]; TBMB(SCH2CH2NH-DOTA) = O=C(O)CN1CCN(CC(=O)O)CCN(CC(=O)NCCSCc2cc(C[*:1])cc(C[*:2])c2)CCN(CC(=O)O)CC1; Ttds = 1,13-diamino-4,7,10-trioxatridecan-succinamic acid, O=C(CCC(=O)[*:2])NCCCOCCOCCOCCCN[*:1]; DOTA = O=C(O)CN1CCN(CC(=O)O)CCN(CC(=O)*)CCN(CC(=O)O)CC1; Biotin = O=C1N[C@H]2[C@H](CS[C@H]2CCCCC(=O)*)N1; Bip = N[C@@H](Cc1ccc(-c2ccccc2)cc1)C(=O)O; Met(O2) = CS(=O)(=O)CC[C@H](N)C(=O)O; mXylylene = c1cc(C[*:1])cc(C[*:2])c1; Pentanesulfonyl = CCCCCS(=O)(=O)*; NMeE = CN[C@@H](CCC(=O)O)C(=O)O; 3Amb = NCc1cccc(C(=O)O)c1; 4Amb = NCc1ccc(C(=O)O)cc1; DOTA′ = not defined here; Nle = CCCC[C@H](N)C(=O)O; Nphe = O=C(O)CNCc1ccccc1; Apr = not defined here; Hexanoyl = CCCCCC(=O)*; AEEA = NCCOCCOCC(=O)O; Sar = CNCC(=O)O

Tests used:
[1] = molecular target: Recombinant human FAP (R&D systems, #3715-SE) (human, UniProt Q12884 26-760); experiment: cell-based or functional assay
[2] = molecular target: T1, fibroblast activation protein (FAP) on FAP-expressing human WI-38 fibroblasts (human, UniProt Q12884 1-760); experiment: competitive FACS, WI-38 cells, vs Cy5 tracer m3; A = pIC50 >8.0
T1 construct: also called human FAP

| Binder | pIC50 Category (Activity) [1] | pIC50 Category (FACS) [2] |
| --- | --- | --- |
| Hexanoyl-CPPTEFCD[3Amb]R-NH2 (linker 1-7 via mXylylene; SMILES CCCCCC(=O)N[C@H]1CSCc2cccc(c2)CSC[C@@H](C(=O)N[C@@H](CC(=O)O)C(=O)NCc2cccc(C(=O)N[C@@H](CCCNC(=N)N)C(N)=O)c2)NC(=O)[C@H](Cc2ccccc2)NC(=O)[C@H](CCC(=O)O)NC(=O)[C@H]([C@@H](C)O)NC(=O)[C@@H]2CCCN2C(=O)[C@@H]2CCCN2C1=O, also called 3BP-3324) [Hex-[Cys(3MeBn)-Pro-Pro-Thr-Glu-Phe-Cys]-Asp-Mamb-Arg-NH2] | > 8 pIC50 | > 8 pIC50 |
| Hexanoyl-CPPTE([Apr-DOTA′])FCD-NH2 (linker 1-7 via mXylylene; reading uncertain; also: printed as Hex-[Cys(3MeBn)-Pro-Pro-Thr-Glu(NH-Apr-DOTA′)-Phe-Cys]-Asp-NH2) [Hex-[Cys(3MeBn)-Pro-Pro-Thr-Glu(NH-Apr-DOTA′)-Phe-Cys]-Asp-NH2] | ≤ 6 pIC50 | – |
| H-MCPPTEFCDHFRD[Ttds″]K(Biotin)-NH2 (linker 2-8 via mXylylene; SMILES CSCC[C@H](N)C(=O)N[C@H]1CSCc2cccc(c2)CSC[C@@H](C(=O)N[C@@H](CC(=O)O)C(=O)N[C@@H](Cc2c[nH]cn2)C(=O)N[C@@H](Cc2ccccc2)C(=O)N[C@@H](CCCNC(=N)N)C(=O)N[C@@H](CC(=O)O)C(=O)NCCCOCCOCCOCCCNC(=O)CCC(=O)N[C@@H](CCCCNC(=O)CCCC[C@@H]2SC[C@@H]3NC(=O)N[C@@H]32)C(N)=O)NC(=O)[C@H](Cc2ccccc2)NC(=O)[C@H](CCC(=O)O)NC(=O)[C@H]([C@@H](C)O)NC(=O)[C@@H]2CCCN2C(=O)[C@@H]2CCCN2C1=O, also called 3BP-2881) [H-Met-[Cys(3MeBn)-Pro-Pro-Thr-Glu-Phe-Cys]-Asp-His-Phe-Arg-Asp-Ttds-Lys(Bio)-NH2] | > 8 pIC50 | > 8 pIC50 |
| Hexanoyl-CPPT[Met(O2)]FC-NH2 (linker 1-7 via mXylylene; SMILES CCCCCC(=O)N[C@H]1CSCc2cccc(c2)CSC[C@@H](C(N)=O)NC(=O)[C@H](Cc2ccccc2)NC(=O)[C@H](CCS(C)(=O)=O)NC(=O)[C@H]([C@@H](C)O)NC(=O)[C@@H]2CCCN2C(=O)[C@@H]2CCCN2C1=O) [Hex-[Cys(3MeBn)-Pro-Pro-Thr-Moo-Phe-Cys]-NH2] | ≤ 6 pIC50 | – |
| Hexanoyl-CPPTAFC-NH2 (linker 1-7 via mXylylene; SMILES CCCCCC(=O)N[C@H]1CSCc2cccc(c2)CSC[C@@H](C(N)=O)NC(=O)[C@H](Cc2ccccc2)NC(=O)[C@H](C)NC(=O)[C@H]([C@@H](C)O)NC(=O)[C@@H]2CCCN2C(=O)[C@@H]2CCCN2C1=O) [Hex-[Cys(3MeBn)-Pro-Pro-Thr-Ala-Phe-Cys]-NH2] | ≤ 6 pIC50 | – |
| Hexanoyl-CPPAEFC-NH2 (linker 1-7 via mXylylene; SMILES CCCCCC(=O)N[C@H]1CSCc2cccc(c2)CSC[C@@H](C(N)=O)NC(=O)[C@H](Cc2ccccc2)NC(=O)[C@H](CCC(=O)O)NC(=O)[C@H](C)NC(=O)[C@@H]2CCCN2C(=O)[C@@H]2CCCN2C1=O) [Hex-[Cys(3MeBn)-Pro-Pro-Ala-Glu-Phe-Cys]-NH2] | ≤ 6 pIC50 | – |
| {DOTA}-[Ttds][Nle]CPPTEFCD[4Amb]R-NH2 (linker 3-9 via mXylylene; SMILES CCCC[C@H](NC(=O)CCC(=O)NCCCOCCOCCOCCCNC(=O)CN1CCN(CC(=O)O)CCN(CC(=O)O)CCN(CC(=O)O)CC1)C(=O)N[C@H]1CSCc2cccc(c2)CSC[C@@H](C(=O)N[C@@H](CC(=O)O)C(=O)NCc2ccc(C(=O)N[C@@H](CCCNC(=N)N)C(N)=O)cc2)NC(=O)[C@H](Cc2ccccc2)NC(=O)[C@H](CCC(=O)O)NC(=O)[C@H]([C@@H](C)O)NC(=O)[C@@H]2CCCN2C(=O)[C@@H]2CCCN2C1=O, also called 3BP-3321) [DOTA-Ttds-Nle-[Cys(3MeBn)-Pro-Pro-Thr-Glu-Phe-Cys]-Asp-Pamb-Arg-NH2] | > 8 pIC50 | > 8 pIC50 |
| Hexanoyl-CAPTEFC-NH2 (linker 1-7 via mXylylene; SMILES CCCCCC(=O)N[C@H]1CSCc2cccc(c2)CSC[C@@H](C(N)=O)NC(=O)[C@H](Cc2ccccc2)NC(=O)[C@H](CCC(=O)O)NC(=O)[C@H]([C@@H](C)O)NC(=O)[C@@H]2CCCN2C(=O)[C@H](C)NC1=O) [Hex-[Cys(3MeBn)-Ala-Pro-Thr-Glu-Phe-Cys]-NH2] | 6.1 pIC50 and 7 pIC50 | – |
| Hexanoyl-CPPTEAC-NH2 (linker 1-7 via mXylylene; SMILES CCCCCC(=O)N[C@H]1CSCc2cccc(c2)CSC[C@@H](C(N)=O)NC(=O)[C@H](C)NC(=O)[C@H](CCC(=O)O)NC(=O)[C@H]([C@@H](C)O)NC(=O)[C@@H]2CCCN2C(=O)[C@@H]2CCCN2C1=O) [Hex-[Cys(3MeBn)-Pro-Pro-Thr-Glu-Ala-Cys]-NH2] | 6.1 pIC50 and 7 pIC50 | – |
| Hexanoyl-CPPTE([Apr-AEEA-DOTA′])FCD-NH2 (linker 1-7 via mXylylene; reading uncertain; also: printed as Hex-[Cys(3MeBn)-Pro-Pro-Thr-Glu(NH-Apr-O2Oc-DOTA′)-Phe-Cys]-Asp-NH2) [Hex-[Cys(3MeBn)-Pro-Pro-Thr-Glu(NH-Apr-O2Oc-DOTA′)-Phe-Cys]-Asp-NH2] | 6.1 pIC50 and 7 pIC50 | – |
| Hexanoyl-CPPTEFCD-NH2 (linker 1-7 via mXylylene; SMILES CCCCCC(=O)N[C@H]1CSCc2cccc(c2)CSC[C@@H](C(=O)N[C@@H](CC(=O)O)C(N)=O)NC(=O)[C@H](Cc2ccccc2)NC(=O)[C@H](CCC(=O)O)NC(=O)[C@H]([C@@H](C)O)NC(=O)[C@@H]2CCCN2C(=O)[C@@H]2CCCN2C1=O) [Hex-[Cys(3MeBn)-Pro-Pro-Thr-Glu-Phe-Cys]-Asp-NH2] | > 8 pIC50 | – |
| {DOTA}-[Ttds][Nle]CPPTQFCD-NH2 (linker 3-9 via mXylylene; SMILES CCCC[C@H](NC(=O)CCC(=O)NCCCOCCOCCOCCCNC(=O)CN1CCN(CC(=O)O)CCN(CC(=O)O)CCN(CC(=O)O)CC1)C(=O)N[C@H]1CSCc2cccc(c2)CSC[C@@H](C(=O)N[C@@H](CC(=O)O)C(N)=O)NC(=O)[C@H](Cc2ccccc2)NC(=O)[C@H](CCC(N)=O)NC(=O)[C@H]([C@@H](C)O)NC(=O)[C@@H]2CCCN2C(=O)[C@@H]2CCCN2C1=O, also called 3BP-3401) [DOTA-Ttds-Nle-[Cys(3MeBn)-Pro-Pro-Thr-Gln-Phe-Cys]-Asp-NH2] | > 8 pIC50 | > 8 pIC50 |
| Hexanoyl-CPPTE[Nphe]C-NH2 (linker 1-7 via mXylylene; SMILES CCCCCC(=O)N[C@H]1CSCc2cccc(c2)CSC[C@@H](C(N)=O)NC(=O)CN(Cc2ccccc2)C(=O)[C@H](CCC(=O)O)NC(=O)[C@H]([C@@H](C)O)NC(=O)[C@@H]2CCCN2C(=O)[C@@H]2CCCN2C1=O) [Hex-[Cys(3MeBn)-Pro-Pro-Thr-Glu-Nphe-Cys]-NH2] | ≤ 6 pIC50 | – |
| Hexanoyl-CPPTE[Bip]C-NH2 (linker 1-7 via mXylylene; SMILES CCCCCC(=O)N[C@H]1CSCc2cccc(c2)CSC[C@@H](C(N)=O)NC(=O)[C@H](Cc2ccc(-c3ccccc3)cc2)NC(=O)[C@H](CCC(=O)O)NC(=O)[C@H]([C@@H](C)O)NC(=O)[C@@H]2CCCN2C(=O)[C@@H]2CCCN2C1=O) [Hex-[Cys(3MeBn)-Pro-Pro-Thr-Glu-Bip-Cys]-NH2] | ≤ 6 pIC50 | – |

Now from value to binder:

| pIC50 Category (Activity) [1] | pIC50 Category (FACS) [2] | Binder |
| --- | --- | --- |
| > 8 pIC50 | > 8 pIC50 | CPPTQFX (not fully specified; N-term Hex; X7 = AET (2-aminoethanethiol, no carboxyl group); Cys1/AET7 thioether-bridged by tMeBn carrying DOTA-AET, also called 3BP-3654) [Hex-[Cys(tMeBn(DOTA-AET))-Pro-Pro-Thr-Gln-Phe-AET]] |
| ≤ 6 pIC50 | – | Hexanoyl-CPPT[NMeE]FC-NH2 (linker 1-7 via mXylylene; SMILES CCCCCC(=O)N[C@H]1CSCc2cccc(c2)CSC[C@@H](C(N)=O)NC(=O)[C@H](Cc2ccccc2)NC(=O)[C@H](CCC(=O)O)N(C)C(=O)[C@H]([C@@H](C)O)NC(=O)[C@@H]2CCCN2C(=O)[C@@H]2CCCN2C1=O) [Hex-[Cys(3MeBn)-Pro-Pro-Thr-Nme-Phe-Cys]-NH2] |
| > 8 pIC50 | > 8 pIC50 | Hexanoyl-C[Sar]PTQFC-OH (linker 1-7 via TBMB(SCH2CH2NH-DOTA); SMILES CCCCCC(=O)N[C@H]1CSCc2cc(CSCCNC(=O)CN3CCN(CC(=O)O)CCN(CC(=O)O)CCN(CC(=O)O)CC3)cc(c2)CSC[C@@H](C(=O)O)NC(=O)[C@H](Cc2ccccc2)NC(=O)[C@H](CCC(N)=O)NC(=O)[C@H]([C@@H](C)O)NC(=O)[C@@H]2CCCN2C(=O)CN(C)C1=O, also called 3BP-3678) [Hex-[Cys(tMeBn(DOTA-AET))-Nmg-Pro-Thr-Gln-Phe-Cys]-OH] |
| > 8 pIC50 | > 8 pIC50 | Hexanoyl-CPPTQXC-OH (linker 1-7 via TBMB(SCH2CH2NH-DOTA); not fully specified (residue 6); printed as Hex-[Cys(tMeBn(DOTA-AET))-Pro-Pro-Thr-Gln-Mpa-Cys]-OH, also called 3BP-3664) [Hex-[Cys(tMeBn(DOTA-AET))-Pro-Pro-Thr-Gln-Mpa-Cys]-OH] |
| 7.1 pIC50 and 8 pIC50 | > 8 pIC50 | Pentanesulfonyl-CPPTEFC-OH (linker 1-7 via TBMB(SCH2CH2NH-DOTA); SMILES CCCCCS(=O)(=O)N[C@H]1CSCc2cc(CSCCNC(=O)CN3CCN(CC(=O)O)CCN(CC(=O)O)CCN(CC(=O)O)CC3)cc(c2)CSC[C@@H](C(=O)O)NC(=O)[C@H](Cc2ccccc2)NC(=O)[C@H](CCC(=O)O)NC(=O)[C@H]([C@@H](C)O)NC(=O)[C@@H]2CCCN2C(=O)[C@@H]2CCCN2C1=O, also called 3BP-3691) [Pentyl-SO2-[Cys(tMeBn(DOTA-AET))-Pro-Pro-Thr-Glu-Phe-Cys]-OH] |
| > 8 pIC50 | > 8 pIC50 | Hexanoyl-CPPTEFC-NH2 (linker 1-7 via TBMB(SCH2CH2NH-DOTA); SMILES CCCCCC(=O)N[C@H]1CSCc2cc(CSCCNC(=O)CN3CCN(CC(=O)O)CCN(CC(=O)O)CCN(CC(=O)O)CC3)cc(c2)CSC[C@@H](C(N)=O)NC(=O)[C@H](Cc2ccccc2)NC(=O)[C@H](CCC(=O)O)NC(=O)[C@H]([C@@H](C)O)NC(=O)[C@@H]2CCCN2C(=O)[C@@H]2CCCN2C1=O, also called 3BP-3653) [Hex-[Cys(tMeBn(DOTA-AET))-Pro-Pro-Thr-Glu-Phe-Cys]-NH2] |
